Assay in all cases: Crosslinking/co-immunoprecipitation/mass spectrometry (TMT quantitative proteomics) to identify irisin receptors
Common to all, as to type: binding

In test [1] the target is T1, MLO-Y4 cell surface proteins (Mus musculus, UniProt Q08189).
T1 construct: endogenous in cells; host or cells: MLO-Y4
T1 sequence (Q08189 1-693): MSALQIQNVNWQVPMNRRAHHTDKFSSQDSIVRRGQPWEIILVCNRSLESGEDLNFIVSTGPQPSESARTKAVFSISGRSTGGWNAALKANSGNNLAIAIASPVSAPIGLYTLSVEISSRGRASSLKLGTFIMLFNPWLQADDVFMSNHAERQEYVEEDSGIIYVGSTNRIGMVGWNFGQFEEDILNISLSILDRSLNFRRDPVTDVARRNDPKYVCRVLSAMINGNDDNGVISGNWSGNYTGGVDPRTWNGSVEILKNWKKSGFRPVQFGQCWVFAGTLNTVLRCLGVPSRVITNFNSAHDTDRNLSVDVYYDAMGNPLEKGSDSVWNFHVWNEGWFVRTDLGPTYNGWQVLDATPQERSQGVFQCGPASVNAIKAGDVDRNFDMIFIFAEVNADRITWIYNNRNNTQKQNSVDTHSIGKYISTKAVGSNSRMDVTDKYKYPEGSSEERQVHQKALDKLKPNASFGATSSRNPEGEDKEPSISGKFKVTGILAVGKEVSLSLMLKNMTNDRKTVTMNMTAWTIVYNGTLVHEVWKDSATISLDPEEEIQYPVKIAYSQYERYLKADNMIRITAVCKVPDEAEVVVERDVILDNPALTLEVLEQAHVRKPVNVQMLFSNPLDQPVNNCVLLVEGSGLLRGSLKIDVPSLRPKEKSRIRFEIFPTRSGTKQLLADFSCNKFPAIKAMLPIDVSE
The note with it: co-precipitated protein Tgm3 (TGM3_MOUSE). A digest of the protocol:
(§1)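 Mouse MLO-Y4 cells were switched to serum-free FreeStyle medium for 4 h, chilled, then exposed to 10 nM His-tagged irisin (or adipsin as control) for 20 min. Cells were crosslinked with 1.5 mM DTSSP (30 min, ice), and bound proteins were pulled down on Ni-NTA and eluted with 250 mM imidazole. Eluates were separated by SDS-PAGE, trypsin-digested in gel, TMT 6-plex labelled and quantified by MS3-based LC-MS/MS on an Orbitrap Fusion Lumos.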

Test [2] has as its target T2, MLO-Y4 cell surface proteins (Mus musculus, UniProt P35762).
T2 construct: endogenous in cells; host or cells: MLO-Y4
T2 sequence (P35762 1-236): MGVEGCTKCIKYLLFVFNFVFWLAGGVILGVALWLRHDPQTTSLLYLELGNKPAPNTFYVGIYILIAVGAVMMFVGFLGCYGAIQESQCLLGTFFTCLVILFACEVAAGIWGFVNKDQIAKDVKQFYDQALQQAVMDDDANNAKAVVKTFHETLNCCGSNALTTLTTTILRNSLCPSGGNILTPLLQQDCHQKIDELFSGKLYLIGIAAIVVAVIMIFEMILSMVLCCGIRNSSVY
The note with it: TMT ratio, Cd81 CD81 antigen. A digest of the protocol:
as §1

The target in test [3] is T3, MLO-Y4 cell surface proteins (Mus musculus, UniProt Q62028).
T3 construct: endogenous in cells; host or cells: MLO-Y4
The following applies: co-precipitated protein Pla2r1 (PLA2R_MOUSE). A digest of the protocol:
as §1

The target in test [4] is T4, MLO-Y4 cell surface proteins (Mus musculus, UniProt P62960).
T4 construct: endogenous in cells; host or cells: MLO-Y4
The following applies: co-precipitated protein Ybx1 (YBOX1_MOUSE). A digest of the protocol: as §1

T3 sequence (Q62028 27-1487): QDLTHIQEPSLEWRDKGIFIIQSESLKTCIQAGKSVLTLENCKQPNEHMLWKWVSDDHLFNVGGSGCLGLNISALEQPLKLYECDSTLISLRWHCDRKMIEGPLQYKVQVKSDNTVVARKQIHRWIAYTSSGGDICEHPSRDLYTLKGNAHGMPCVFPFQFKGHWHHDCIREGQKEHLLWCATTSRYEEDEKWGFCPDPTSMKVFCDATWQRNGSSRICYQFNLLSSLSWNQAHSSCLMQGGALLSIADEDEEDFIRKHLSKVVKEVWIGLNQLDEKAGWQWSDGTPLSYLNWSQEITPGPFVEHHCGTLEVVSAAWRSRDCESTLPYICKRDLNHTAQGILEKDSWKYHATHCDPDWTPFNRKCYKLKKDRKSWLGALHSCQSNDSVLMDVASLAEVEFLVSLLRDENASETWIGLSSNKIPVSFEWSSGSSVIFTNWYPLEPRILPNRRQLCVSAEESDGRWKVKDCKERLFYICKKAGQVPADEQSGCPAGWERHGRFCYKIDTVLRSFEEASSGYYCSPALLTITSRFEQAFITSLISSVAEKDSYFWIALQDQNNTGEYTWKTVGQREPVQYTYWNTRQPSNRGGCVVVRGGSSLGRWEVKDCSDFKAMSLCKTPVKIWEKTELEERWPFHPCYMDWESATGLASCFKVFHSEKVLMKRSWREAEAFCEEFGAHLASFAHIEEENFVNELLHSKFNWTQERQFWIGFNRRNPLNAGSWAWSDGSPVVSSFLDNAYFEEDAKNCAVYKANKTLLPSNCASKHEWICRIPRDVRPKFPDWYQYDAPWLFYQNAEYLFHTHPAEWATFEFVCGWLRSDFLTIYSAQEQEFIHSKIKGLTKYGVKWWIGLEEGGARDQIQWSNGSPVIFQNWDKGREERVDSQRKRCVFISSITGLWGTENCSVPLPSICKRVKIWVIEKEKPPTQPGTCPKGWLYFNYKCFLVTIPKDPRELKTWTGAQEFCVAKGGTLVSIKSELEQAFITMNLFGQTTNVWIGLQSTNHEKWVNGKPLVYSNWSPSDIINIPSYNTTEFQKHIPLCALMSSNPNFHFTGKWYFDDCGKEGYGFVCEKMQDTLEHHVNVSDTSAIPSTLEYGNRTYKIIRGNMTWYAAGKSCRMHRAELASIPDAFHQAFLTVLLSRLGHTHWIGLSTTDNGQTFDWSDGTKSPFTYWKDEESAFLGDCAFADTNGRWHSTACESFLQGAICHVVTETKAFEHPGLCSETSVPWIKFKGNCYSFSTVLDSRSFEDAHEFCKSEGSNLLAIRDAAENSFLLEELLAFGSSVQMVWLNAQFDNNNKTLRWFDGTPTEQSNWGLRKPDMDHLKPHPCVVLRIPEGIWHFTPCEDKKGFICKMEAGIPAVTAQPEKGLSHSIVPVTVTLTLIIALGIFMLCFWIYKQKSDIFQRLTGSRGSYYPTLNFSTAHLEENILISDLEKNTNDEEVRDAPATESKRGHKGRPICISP
T4 sequence (P62960 whole entry): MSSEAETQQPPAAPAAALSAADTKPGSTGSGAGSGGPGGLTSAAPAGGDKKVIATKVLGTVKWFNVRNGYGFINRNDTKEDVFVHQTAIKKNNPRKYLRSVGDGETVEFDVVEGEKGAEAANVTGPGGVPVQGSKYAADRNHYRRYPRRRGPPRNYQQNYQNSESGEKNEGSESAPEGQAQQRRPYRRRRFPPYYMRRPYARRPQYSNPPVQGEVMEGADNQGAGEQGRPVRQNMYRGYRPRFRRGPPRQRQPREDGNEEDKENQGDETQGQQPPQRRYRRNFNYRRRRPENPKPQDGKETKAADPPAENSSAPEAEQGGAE

B1: irisin: secreted cleaved form of FNDC5; recombinant human/mouse irisin with C-terminal his tag produced in HEK293 cells (protein)
chain: DSPSAPVNVTVRHLKANSAVVSWDVLEDEVVIGFAISQQKKDVRMLRFIQEVNTTTRSCALWDLEEDTEYIVHVQAISIQGQSPASEPVLFKTPREAEKMASKNKDEVTMKE
modifications: left off: small tags and cut ends
notes: secreted cleaved form of FNDC5; recombinant human/mouse irisin with C-terminal his tag produced in HEK293 cells
In the case of B1, the TMT signal-to-noise ratio worked out at 45.8379 in test [1] and 142.778 in test [3]. Besides, the “irisin/adipsin TMT signal-to-noise ratio” value in test [1] is 0.167; in test [3], 0.275; in test [4] it was 0.277. Moreover, in test [2], the irsin/adipsin came to 4.05.
